# Experimental data published in article PMC4405707.
# B1: GluA2i: N385D (protein)
# parent chain: MQKIMHISVLLSPVLWGLIFGVSSNSIQIGGLFPRGADQEYSAFRVGMVQFSTSEFRLTPHIDNLEVANSFAVTNAFCSQFSRGVYAIFGFYDKKSVNTITSFCGTLHVSFITPSFPTDGTHPFVIQMRPDLKGALLSLIEYYQWDKFAYLYDSDRGLSTLQAVLDSAAEKKWQVTAINVGNINNDKKDETYRSLFQDLELKKERRVILDCERDKVNDIVDQVITIGKHVKGYHYIIANLGFTDGDLLKIQFGGANVSGFQIVDYDDSLVSKFIERWSTLEEKEYPGAHTATIKYTSALTYDAVQVMTEAFRNLRKQRIEISRRGNAGDCLANPAVPWGQGVEIERALKQVQVEGLSGNIKFDQNGKRINYTINIMELKTNGPRKIGYWSEVDKMVVTLTELPSGNDTSGLENKTVVVTTILESPYVMMKKNHEMLEGNERYEGYCVDLAAEIAKHCGFKYKLTIVGDGKYGARDADTKIWNGMVGELVYGKADIAIAPLTITLVREEVIDFSKPFMSLGISIMIKKPQKSKPGVFSFLDPLAYEIWMCIVFAYIGVSVVLFLVSRFSPYEWHTEEFEDGRETQSSESTNEFGIFNSLWFSLGAFMQQGCDISPRSLSGRIVGGVWWFFTLIIISSYTANLAAFLTVERMVSPIESAEDLSKQTEIAYGTLDSGSTKEFFRRSKIAVFDKMWTYMRSAEPSVFVRTTAEGVARVRKSKGKYAYLLESTMNEYIEQRKPCDTMKVGGNLDSKGYGIATPKGSSLGTPVNLAVLKLSEQGVLDKLKNKWWYDKGECGAKDSGSKEKTSALSLSNVAGVFYILVGGLGLAMLVALIEFCYKSRAEAKRMKVAKNPQNINPSSSQNSQNFATYKEGYNVYGIESVKI
# B2: GluA2i: N392Q (protein)
# parent chain: B1 parent chain
# Columns and labels:
# [1] = outside-out patch, 10 mM glutamate, τw,des; conditions: glycan lost; control: GluA2i WT + γ-2
# [2] = outside-out patch, steady state-to-peak ratio; conditions: glycan lost; control: GluA2i WT + γ-2
Protein,other: channel desensitisation kinetics [1],other: steady-state channel current [2]
B1,no change,increases
B2,no change,increases
